The assay concerns the target CNOT1 of the CCR4-NOT complex, endogenous. Kind of assay: GFP-trap pull-down, Western blot quantification. Particulars: lentivirally transduced neurons, read off a plot. (In western blotting, separated proteins are transferred to a membrane and probed.)
Where [1] appears, read: NMDA 3 min, 10 min incubation after NMDA washout, parent: est. 1.4.
Setting [2] is: vehicle (no NMDA) 3 min, 10 min incubation after washout, parent: est. 0.94.

For the substance “GFP-Ago2(WT) (from UniProt Q9UKV8) S387A”, the ratio to parent by setting is: under setting [1], 0.81; under setting [2], 0.75.

As for “GFP-Ago2(WT) (from UniProt Q9UKV8) S387D”, the ratio to parent reads like this: under setting [1], 1.3; under setting [2], 1.3.

The values are drawn from paper PMC10847504.
